This note sets out measurements from patent publication US20160075743A1 (AGRESEARCH, published 2016).

In assay [1] the target is T1, YenB/YenC2-N complex (hollow shell) (Yersinia entomophaga, UniProt B6A880 1-1487; B6A882 1-690).
T1 construct: Heterodimer of YenB and YenC2-N. It is used here as the partner that encapsulates YenC2-C or GFP; also called TcB:TcC shell; BC shell
The assay can be described thus: SAXS and crystal structure; encapsulation in the shell.

The target in assay [2] is T2, Yersinia entomophaga YenB (TcB component of the Yen-Tc toxin complex) (Yersinia entomophaga, UniProt B6A880 1-1487).
T2 sequence: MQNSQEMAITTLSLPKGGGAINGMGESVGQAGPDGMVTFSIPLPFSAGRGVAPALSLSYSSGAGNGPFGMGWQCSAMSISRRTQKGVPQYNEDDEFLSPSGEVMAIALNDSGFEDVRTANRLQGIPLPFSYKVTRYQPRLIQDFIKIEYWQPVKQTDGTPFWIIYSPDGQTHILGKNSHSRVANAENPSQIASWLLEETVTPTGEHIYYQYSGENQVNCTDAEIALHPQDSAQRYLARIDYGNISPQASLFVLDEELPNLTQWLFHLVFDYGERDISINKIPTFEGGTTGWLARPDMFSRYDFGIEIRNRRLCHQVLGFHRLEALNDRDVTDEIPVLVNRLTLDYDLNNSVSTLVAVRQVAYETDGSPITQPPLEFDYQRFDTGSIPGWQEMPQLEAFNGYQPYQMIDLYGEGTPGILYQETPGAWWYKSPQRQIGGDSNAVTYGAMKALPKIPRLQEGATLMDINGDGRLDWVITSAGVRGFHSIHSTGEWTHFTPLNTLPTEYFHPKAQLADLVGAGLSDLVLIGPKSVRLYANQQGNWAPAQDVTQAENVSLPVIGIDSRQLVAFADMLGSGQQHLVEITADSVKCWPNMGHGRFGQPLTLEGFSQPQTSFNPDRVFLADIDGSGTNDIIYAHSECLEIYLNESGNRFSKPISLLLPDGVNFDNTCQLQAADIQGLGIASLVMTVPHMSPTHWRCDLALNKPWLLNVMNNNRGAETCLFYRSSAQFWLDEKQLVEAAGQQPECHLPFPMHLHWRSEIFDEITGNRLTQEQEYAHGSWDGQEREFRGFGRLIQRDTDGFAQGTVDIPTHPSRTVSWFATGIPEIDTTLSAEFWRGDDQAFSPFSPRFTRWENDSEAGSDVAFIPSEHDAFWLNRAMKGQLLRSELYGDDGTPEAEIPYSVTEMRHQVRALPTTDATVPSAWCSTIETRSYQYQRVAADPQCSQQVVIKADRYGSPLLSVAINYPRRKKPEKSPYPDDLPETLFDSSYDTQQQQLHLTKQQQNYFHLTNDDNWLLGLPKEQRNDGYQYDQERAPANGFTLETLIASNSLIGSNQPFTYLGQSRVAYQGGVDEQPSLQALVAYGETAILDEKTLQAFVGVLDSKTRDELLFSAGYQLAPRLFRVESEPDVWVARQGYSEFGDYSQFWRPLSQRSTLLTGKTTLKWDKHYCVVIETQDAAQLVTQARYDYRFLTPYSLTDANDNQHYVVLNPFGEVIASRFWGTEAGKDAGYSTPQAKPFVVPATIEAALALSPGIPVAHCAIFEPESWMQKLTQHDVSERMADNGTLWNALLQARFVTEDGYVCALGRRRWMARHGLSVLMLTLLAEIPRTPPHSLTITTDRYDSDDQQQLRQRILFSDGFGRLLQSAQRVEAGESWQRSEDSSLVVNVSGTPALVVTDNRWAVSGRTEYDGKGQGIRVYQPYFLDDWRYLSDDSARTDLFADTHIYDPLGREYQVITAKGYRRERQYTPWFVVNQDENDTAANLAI
The experiment in a line: co-expression in E. coli, size-exclusion chromatography. Background: Size exclusion chromatography separates by hydrodynamic size, large species first.

In assay [3] the target is T2, Yersinia entomophaga YenB (TcB …). The experiment in a line: X-ray crystal structure (figure legend).
For assay [4] the target is unchanged. The assay can be described thus: co-expression, co-purification by Ni-affinity and SEC.
Assay [5] shares this target. The experiment in a line: purification after precipitation of the C-terminal domain at pH 4.5-5.0.

B1: C-terminal region of YenC2 (YenC2-C) (other)
chain: APLDWLDLDTTNASRDIVKAIYQLNQIDGPHRGVRDTYQRMTESTGMILQETLNNEAVLKGIKQKDKEKKSRGMKFTNSKLKTYAAHAGVLNTLQPDPVYKDGFLNLPGSLGNKNTFPGVELIEDKVKPSLSQYHPDKLGKSQRWKPESSLGYYRVADTEAFITGIRSQYKSSGTDLHAVVEGRIRDHLLANNNVLPKMAGIAGLHAEVQALNYIISNPDIEGGNAERLNGSYIFTQRLVGDVNQDFPACYNCSGIISGLENVMTGRVNNDVRLKRRKSF
notes: also called YenC-C; TcC-C
Regarding B1, in assay [1], the binding result is “binds”.

B2: Yersinia entomophaga YenC1 (TcC component) (other)
chain: MNQFDSALHQGTPGVSVLDNRGHVIRELRYYRHPDTPQEIAERIAFHQYDSYGFISQSIDPRLAERRKQDSSVKPNLSYFTALSGEVLRTDGVDAGTIFSLNDIAARPAISISATGVSHTWQYEGENRPGRVLSRSEREKDREERIIERFYWAGSDASQKANNLAGQCLRHYNSAGLNQTLSIALTGTPISACFQPLLESAEPEWQGTNESAWLELLTPEIFTTYNRADANGETLVQTDAMGNIQRLAYDVAGFLKSSWLSLKGGQEQIIVKSLTYSAAGQKLQEEHGNGVLTTYSYEAETQRLIGIRTERPAGHLSGARVFQDLRYTYDPVGNVLRITNDAEATRFWRNQKVVPENTYIYDTLYQLVSANGREMANIPQQSSQLPTLSPIDNNAYTNYIRNYHYDSAGNLMQIRHTSAAANNSYTTNITVSKYSNRAVLSSLTDDVDKVEAFFDAAGRQNQLLPGQTLSWNARGELAKVTPVARDGQESDSETYRYDANSQRVSKMAIQQSNNNTQTRRVLYLAGLERRTIHQGNTLFETLLVVKIGEAGRAQVQAMHWELGQPTEVANDELRYSYDNLIGSSGLEVDGTGQLISQEEYYPYGGTAVWMARSQREASDKAYGYSGKERDATGLYYYGFRYYQPWAGRWLSADPAGTIDGLNLFRMVRNNPIVLHDPDGLAPGFFERISSFRKKDTLTISSLKGTGPFYTRSESEIDIDFLFSRQDRDKDFPPQNHKELSAEDRREVLEVSSGENITSANKSSKWYAGTHWETKPLKNNTDLVVLHNGVQGAAGININLNDIKPGRSVLVTAGTLTGCTMITGVKGNNFYALHAGTGTPSENWVTGEHGVTDNFRMLNKLIPDAGIDLNPEAVNDSLLTILDYFDNGTIAYNGKKGSEIHRDADNILNYRTTGYENTVGVSFSLLTKDKNGEVSASTLLELGELKPHKKHRTRGQFGMTELKYEARKNTVVKLR
notes: Expressed as the whole protein; When co-expressed with YenB it auto-proteolyses into two fragments, and both co-elute with YenB
Take B2: in assay [2], the binding result was “binds”.

B3: conserved N-terminal 76 kDa portion of YenC2 (YenC2-N) (other)
chain: MDIQLFSKTPSVTVFDNRGLSVRDIAYRRHPDTPKVTEECITYHQFDFRGFLAQSLDPRLNHKEVTNFSYLTDLNGNIIYTQSVDAGNTLVLNDTEGRSVIAMTNISRGENGKDDLSLAVTRTFQYENAPLPGRPLSVTEQVNGENARITEHFVYAGNTPQEKNLNLAGQCVSYYDAAGLIQTDSVSLTGKPLSVSRKLLKNLDDTNILADWQGNDTSAWNSLLATEIYTTVTRTDAAGAVLTTIDAVGNQQRVAFDIAGQLSASWLTLKGGQEQVIIKVLTYSAAGQKLREEGGNGVVTTYTYEAETQRLIGIKTERPNGHAAGAKVLQDLRYEYDPVGNVLSITNDAEETRFWRNQKVVPENAYRYDSLYQLVSASGREVAGAGQQGSDLPSPLVPLPSDSSVYTNYTRTYTYDSAGNLMRIRHSAPATNNNYTLNITVSERSNRGVMSSLTENPADVDALFTASGSQKCLQQGQSLIWTPRGELRTVLLVARGETADDSESYRYDGSSQRILKISSQQTNHSARVQRALYLPGLEWRTMTGGVAEAENLQVICIGEAGRAQVRVLHWESGKPDGIINDQIRWSYDNLTCSSGLEVDGDGLVISMEEYYPYGGTAVWAARSHIETAYKTVRYSGKERDATGLYYYGFRYYQPWAGRWLSADPAGTVDGLNLYRMVRNNPLRLTDPDGM
notes: Made by self-cleavage of YenC2 after M690 when co-expressed with YenB; The C-terminal fragment was removed at pH 4.5; also called YenC2NTR; YenC2 - N term
Take B3: the binding result in assay [3] is recorded as “binds”.

B4: Yersinia entomophaga YenC2 (TcC component) (other)
chain: MDIQLFSKTPSVTVFDNRGLSVRDIAYRRHPDTPKVTEECITYHQFDFRGFLAQSLDPRLNHKEVTNFSYLTDLNGNIIYTQSVDAGNTLVLNDTEGRSVIAMTNISRGENGKDDLSLAVTRTFQYENAPLPGRPLSVTEQVNGENARITEHFVYAGNTPQEKNLNLAGQCVSYYDAAGLIQTDSVSLTGKPLSVSRKLLKNLDDTNILADWQGNDTSAWNSLLATEIYTTVTRTDAAGAVLTTIDAVGNQQRVAFDIAGQLSASWLTLKGGQEQVIIKVLTYSAAGQKLREEGGNGVVTTYTYEAETQRLIGIKTERPNGHAAGAKVLQDLRYEYDPVGNVLSITNDAEETRFWRNQKVVPENAYRYDSLYQLVSASGREVAGAGQQGSDLPSPLVPLPSDSSVYTNYTRTYTYDSAGNLMRIRHSAPATNNNYTLNITVSERSNRGVMSSLTENPADVDALFTASGSQKCLQQGQSLIWTPRGELRTVLLVARGETADDSESYRYDGSSQRILKISSQQTNHSARVQRALYLPGLEWRTMTGGVAEAENLQVICIGEAGRAQVRVLHWESGKPDGIINDQIRWSYDNLTCSSGLEVDGDGLVISMEEYYPYGGTAVWAARSHIETAYKTVRYSGKERDATGLYYYGFRYYQPWAGRWLSADPAGTVDGLNLYRMVRNNPLRLTDPDGMAPLDWLDLDTTNASRDIVKAIYQLNQIDGPHRGVRDTYQRMTESTGMILQETLNNEAVLKGIKQKDKEKKSRGMKFTNSKLKTYAAHAGVLNTLQPDPVYKDGFLNLPGSLGNKNTFPGVELIEDKVKPSLSQYHPDKLGKSQRWKPESSLGYYRVADTEAFITGIRSQYKSSGTDLHAVVEGRIRDHLLANNNVLPKMAGIAGLHAEVQALNYIISNPDIEGGNAERLNGSYIFTQRLVGDVNQDFPACYNCSGIISGLENVMTGRVNNDVRLKRRKSF
notes: Expressed as the whole protein; When co-expressed with YenB it self-cleaves after M690 into YenC2-N and YenC2-C, and both fragments stay in the complex
In the case of B4, the binding result in assay [4] is on record as “binds”.

B5: N-terminal portion of YenC1 (other)
chain: MNQFDSALHQGTPGVSVLDNRGHVIRELRYYRHPDTPQEIAERIAFHQYDSYGFISQSIDPRLAERRKQDSSVKPNLSYFTALSGEVLRTDGVDAGTIFSLNDIAARPAISISATGVSHTWQYEGENRPGRVLSRSEREKDREERIIERFYWAGSDASQKANNLAGQCLRHYNSAGLNQTLSIALTGTPISACFQPLLESAEPEWQGTNESAWLELLTPEIFTTYNRADANGETLVQTDAMGNIQRLAYDVAGFLKSSWLSLKGGQEQIIVKSLTYSAAGQKLQEEHGNGVLTTYSYEAETQRLIGIRTERPAGHLSGARVFQDLRYTYDPVGNVLRITNDAEATRFWRNQKVVPENTYIYDTLYQLVSANGREMANIPQQSSQLPTLSPIDNNAYTNYIRNYHYDSAGNLMQIRHTSAAANNSYTTNITVSKYSNRAVLSSLTDDVDKVEAFFDAAGRQNQLLPGQTLSWNARGELAKVTPVARDGQESDSETYRYDANSQRVSKMAIQQSNNNTQTRRVLYLAGLERRTIHQGNTLFETLLVVKIGEAGRAQVQAMHWELGQPTEVANDELRYSYDNLIGSSGLEVDGTGQLISQEEYYPYGGTAVWMARSQREASDKAYGYSGKERDATGLYYYGFRYYQPWAGRWLSADPAGTIDGLNLFRMVRNNPIVLHDPDGL
notes: Fragment left in complex with YenB after the C-terminal domain precipitated at low pH; also called YenC1 - N term; N-terminal portions of YenC
Consider B5, for which the binding result in assay [5] was “binds”.
